The target of one assay is HLA-A*02:01. Put plainly: IEDB peptide-MHC binding, purified MHC/competitive/radioactivity; ≥ and ≤ were set here for values at or beyond the usual limits of such assays. The following applies: source organism: Mammarenavirus brazilense.
For ALIAVSLIA, the concentration for half-maximal inhibition (IC50) was 1100 nM.
Same read-out and setting: under ALIAVSLIAA stands 28 nM.
Same read-out and setting: then ALTSLGLLYT, with 593 nM; and CMVNHSTYYV, with 73 nM.
Take EAINIALIAV: the IC50 worked out at 1480 nM.
On to FQLIFFLTL, for which the IC50 is 353 nM.
Still for that read-out and setting: under FQLIFFLTLA stands 229 nM.

Still in this assay, the particulars now being: source organism: Mammarenavirus choriomeningitidis.
On to ALPHIIDEV, for which the IC50 is 57 nM.

The same assay, now with this note: source organism: Mammarenavirus juninense.
On to ALVAVSLIAI, for which the IC50 was determined as 324 nM.
Consider FMISFDDIAV, for which the IC50 was 5.4 nM.
On to FQFFVFLAL, for which the IC50 stood at 675 nM.
Still for that read-out and setting: under FQTVSFSMV stands 180 nM.

The assay is the same for the next values; noted with them: source organism: Mammarenavirus lassaense.
As for ALMDCIMFDA, the IC50 came to 1.1 nM.

The assay is the same for the next values; noted with them: source organism: Mammarenavirus machupoense.
With ALLPLSLLFL, the IC50 turned out to be 4.7 nM.
With ALTIACMTV, the IC50 amounted to 332 nM.
On the same count and under the same terms, then ALVAVSLIA, with 3690 nM; and AMPGVLSYVI, with 2450 nM; and DAMPGVLSYV, with 44 nM.
For EALNIALVAV, the IC50 came out at 341 nM.
For FLPKAAFAL, the IC50 is 30 nM.
The same measure, in the same setting: under FLQEALNIA stands 6.9 nM; under FLQEALNIAL, 16 nM; under FTASLFLHLV, 75 nM.

The assay is the same for the next values; noted with them: source organism: Mammarenavirus whitewaterense.
Take ALIAVSIISI: the IC50 came out at 246 nM.
Same read-out and setting: under ALNIALIAV stands 19 nM.
Still for that read-out and setting: then CMINDTHFLL, with 66 nM.
Consider FLKMRRIFGV, for which the IC50 was determined as 64 nM.
On the same count and under the same terms, then FLLRGPFEA, with 11 nM.

The assay is the same for the next values; noted with them: source organism: Vaccinia virus WR.
With AALGGSVNI, the IC50 turned out to be 1460 nM.
Same read-out and setting: then AAMYQYIFL, with 686 nM.
As to AASSTHRKV, the IC50 worked out at 2640 nM.
In the case of AIFTDASTV, the IC50 was 697 nM.
Still for that read-out and setting: then AIIAIVFVFI, with 940 nM; and AIIDIEPDL, with 301 nM.
In the case of AIIGLCAYA, the IC50 was 81 nM.
Still for that read-out and setting: then AIIPLSASV, with 14 nM.
For the sequence AIMESDSFL, the IC50 worked out at 173 nM.
Consider AITDAAVAV, for which the IC50 came to 1480 nM.
Still for that read-out and setting: then AITDAAVAVA, with 3830 nM; and AIYKLGSSI, with 1100 nM; and AIYSAILLLV, with 53 nM.
For ALAKNASEL, the IC50 came out at 73 nM.
ALATFTVNI: the IC50 was 0.6 nM.
ALFGIKLPAL: the IC50 is 2.5 nM.
For ALGGSVNIWA, the IC50 was determined as 1160 nM.
Same read-out and setting: then ALIANIHNHM, with 118 nM.
Turning to ALLSRFFNM, the IC50 was determined as 0.61 nM.
On the same count and under the same terms, under ALLVATDPDA stands 606 nM; under ALMAITKNV, 8.4 nM; under ALMRRIAVV, 1.8 nM.
Still for that read-out and setting: then ALNHLVLSL, with 0.45 nM.
Still for that read-out and setting: under ALQNVMISI stands 440 nM.
Take ALTIMGVIFL: the IC50 was found to be 180 nM.
ALTNAQFFV: the IC50 was found to be 1.3 nM.
On to ALVALVITI, for which the IC50 came to 1.9 nM.
Still for that read-out and setting: under ALVASLNPNM stands 1330 nM.
ALWIPDLFM: the IC50 was 0.14 nM.
The same measure, in the same setting: under AMFTAALNI stands 2.4 nM; under AMFTTMYNI, 2.8 nM.
On the same count and under the same terms, then AMIELCGAFL, with 0.78 nM; and AMTAFFGEL, with 50 nM; and ATNIFPFFV, with 17 nM.
The same measure, in the same setting: under ATYHIIIVAL stands 1150 nM.
With AVISKVTYSL, the IC50 turned out to be 4770 nM.
Consider AVKDKNWTV, for which the IC50 was 1810 nM.
Regarding AVLLTYFCFV, the IC50 is 3.4 nM.
Take AVNEEWLTAV: the IC50 came to 390 nM.
Same read-out and setting: under AVTKTDGIPI stands 1460 nM; under AVVYSTCTV, 104 nM.
Take CIDGKWNPV: the IC50 is 8.3 nM.
Consider CIDGKWNPVL, for which the IC50 was found to be 1860 nM.
As to CISQHQHLA, the half-inhibitory concentration (IC50) turned out to be 449 nM.
Consider CLCSFHNDA, for which the IC50 stood at 4140 nM.
On the same count and under the same terms, then CLCSFHNDAI, with 2880 nM.
Same read-out and setting: under CLKDIIDFL stands 671 nM; under CLVVSTKGDV, 674 nM.
Same read-out and setting: then CMAFTIPSI, with 0.9 nM.
Turning to CMSANEAAI, the IC50 worked out at 16 nM.
Same read-out and setting: then CQQKCDMPSL, with 2370 nM.
The same measure, in the same setting: under CTANSWNVI stands 794 nM; under CVLPAVVYST, 303 nM; under CVLTTIDGV, 293 nM.
Still for that read-out and setting: then DAIIDIEPDL, with 2270 nM; and DALATFTVNI, with 178 nM.
Consider DASLMDMITL, for which the IC50 amounted to 206 nM.
DIIDFLEGA: the IC50 turned out to be 445 nM.
Still for that read-out and setting: under DLLSYYVVYV stands 0.45 nM; under DLYDYITRI, 1030 nM; under DMIDNLNIV, 2360 nM.
On the same count and under the same terms, under DMMSLNLTIV stands 2850 nM; under DMTKVDVEL, 3990 nM; under DTVFDYYVL, 54 nM.
As for DTWGSDGNPI, the IC50 stood at 1150 nM.
On the same count and under the same terms, then DVVILLLSSV, with 907 nM.
Still for that read-out and setting: under EAAITDAAV stands 2320 nM; under EATYHIIIVA, 2120 nM.
For EIIPSSIPV, the IC50 turned out to be 4650 nM.
Turning to EILGIAHLL, the IC50 came out at 4330 nM.
Still for that read-out and setting: then ELIAFSSGTV, with 997 nM; and ELIKELTTL, with 134 nM; and ELKETLLHV, with 4330 nM.
Still for that read-out and setting: under ELMYIFAAL stands 108 nM; under ELQKFSFKI, 167 nM; under ELVFIKPPLI, 3300 nM.
Still for that read-out and setting: then ELVRYIELV, with 291 nM.
Regarding ELYNKPLYEV, the IC50 came to 0.79 nM.
Still for that read-out and setting: under EQEFLTAAL stands 17 nM; under ETIGNQLYL, 3540 nM.
Still for that read-out and setting: then ETYHLIDYET, with 3180 nM; and EVGIKSVVV, with 123 nM.
Still for that read-out and setting: under EVVDMLSTYL stands 1780 nM.
As to FAAELTIGV, the IC50 came out at 0.32 nM.
Turning to FAALGGSVNI, the IC50 is 3730 nM.
Still for that read-out and setting: then FACLMFKHLL, with 1140 nM; and FAVQTIVFI, with 96 nM.
In the case of FIADIGIGV, the IC50 came out at 0.3 nM.
On to FIALWIPDL, for which the IC50 was 1.7 nM.
On to FICWHSSEI, for which the IC50 amounted to 53 nM.
Take FIDILLFVI: the IC50 was found to be 14 nM.
Still for that read-out and setting: then FIDSNEYEV, with 0.98 nM; and FIDSYLQKL, with 24 nM; and FIDTVSVYT, with 231 nM.
For the sequence FIEHLGEGI, the half-maximal inhibitory concentration (IC50) amounted to 4820 nM.
For FIFTGITLFL, the IC50 came to 0.92 nM.
Same read-out and setting: under FIGYMVKNV stands 443 nM.
On to FIHGGILYA, for which the IC50 was found to be 8.8 nM.
The same measure, in the same setting: under FIIEVSNCV stands 13 nM.
For the sequence FIILLLAIV, the IC50 turned out to be 596 nM.
The same measure, in the same setting: under FIISVISLV stands 0.91 nM.
For the sequence FIKGFLYHT, the IC50 is 1320 nM.
On the same count and under the same terms, under FIKPPLITL stands 373 nM.
For FIKQGFNNLV, the IC50 turned out to be 119 nM.
Still for that read-out and setting: then FILGIIITV, with 0.11 nM; and FILHRLHEI, with 0.65 nM.
In the case of FILIFNIIV, the IC50 was 3.2 nM.
Still for that read-out and setting: then FILTAILFFM, with 0.12 nM; and FINFFNLLA, with 726 nM; and FIRYGDASLM, with 2360 nM.
The same measure, in the same setting: then FIVVATAAV, with 7 nM; and FIYLLFASM, with 173 nM; and FLAVLSPTI, with 0.66 nM.
The same measure, in the same setting: under FLCLLMKLSI stands 2.1 nM; under FLDNECHTI, 0.78 nM.
With FLEGALIANI, the IC50 came to 30 nM.
Turning to FLFYPSMFTL, the IC50 is 0.23 nM.
In the case of FLHESDPMVI, the IC50 was 1.1 nM.
For FLHNYILYA, the IC50 was 0.54 nM.
On the same count and under the same terms, under FLHTTFIDV stands 0.46 nM.
With FLICHNLRA, the IC50 stood at 17 nM.
Same read-out and setting: then FLIDLAFLI, with 0.041 nM; and FLIPKGFYA, with 0.82 nM; and FLIVRLNQCM, with 34 nM.
On to FLIVSLCPT, for which the half-maximal inhibitory concentration (IC50) was determined as 1.5 nM.
Same read-out and setting: under FLKDVMVEI stands 3 nM; under FLKIKVTAA, 52 nM; under FLKYSRSKPA, 3540 nM.
Still for that read-out and setting: then FLLFLEITYT, with 6.9 nM; and FLLIRYITT, with 46 nM; and FLLLTSIPI, with 0.11 nM.
On to FLLRSIIVA, for which the IC50 is 3.1 nM.
With FLPIIFDAFL, the IC50 is 0.22 nM.
On the same count and under the same terms, then FLRGEAILQI, with 85 nM; and FLRYLLFGI, with 2.5 nM; and FLSLMSLSI, with 3.5 nM.
With FLSRLVLYA, the IC50 amounted to 0.075 nM.
On the same count and under the same terms, under FLSRVFFCV stands 0.81 nM.
On the same count and under the same terms, then FLSYISDTV, with 0.54 nM; and FLTAALPVKL, with 384 nM.
Regarding FLTLLGIGCV, the IC50 is 0.29 nM.
FLTSVINRV: the concentration for half-maximal inhibition (IC50) was 2.5 nM.
On the same count and under the same terms, under FLVFVKPTT stands 516 nM; under FLVGVAIILV, 7.6 nM; under FLYNVYPGA, 1.3 nM.
In the case of FMASPENVI, the IC50 is 13 nM.
For the sequence FMASPENVIL, the IC50 came to 1070 nM.
In the case of FMAYTTSHI, the 50% inhibitory concentration (IC50) stood at 3.2 nM.
Turning to FMFIGSPMYL, the IC50 was 0.093 nM.
With FMIEGLMTSL, the IC50 worked out at 0.2 nM.
On the same count and under the same terms, then FMIITSTKTI, with 1480 nM; and FMLPKQDIV, with 4.9 nM; and FMMVLPGAA, with 6.7 nM.
The same measure, in the same setting: then FMQRIISLSV, with 1.8 nM.
For the sequence FMYFCEQKL, the IC50 came out at 1.9 nM.
Same read-out and setting: under FMYIESIKV stands 1.3 nM; under FQQPQFQYL, 48 nM.
Still for that read-out and setting: under FQYLLPGFVL stands 37 nM; under FQYVSYSNFI, 1450 nM.
In the case of FTDASTVASA, the IC50 was determined as 793 nM.
The same measure, in the same setting: then FTFSNVCESV, with 2.4 nM; and FTFTIYTDEV, with 352 nM; and FTGITLFLL, with 130 nM.
On the same count and under the same terms, under FTISMRYQSL stands 4300 nM; under FTLIDIWFL, 0.49 nM; under FTLNHVLAL, 1.5 nM.

One may read the IC50 as the concentration that inhibits the measured activity by half.

The values above are taken from the Immune Epitope Database (IEDB).
